According to patent US7098013B2, “Polypeptide having α-isomaltosyl-transferase activity” (Kabushiki Kaisha Hayashibara Seibutsu Kagaku Kenkyujo, priority 2000, dated 2006):

Key:
[1] = Optimum temperature of the enzyme activity; assay type: biochemical; conditions: incubated for 30 min, pH 6.0
Experimental: (§1) The activity of α-isomaltosyl-transferring enzyme was measured by the following assay: A substrate solution was prepared by dissolving panose in 100 mM acetate buffer (pH 6.0) to give a concentration of 2% (w/v). A reaction mixture was prepared by mixing 0.5 ml of the substrate solution and 0.5 ml of an enzyme solution, and incubated at 35° C. for 30 min. After stopping the reaction by boiling for 10 min, the amount of glucose formed in the reaction mixture was determined by the glucose oxidase-peroxidase method. One unit of α-isomaltosyl-transferring activity was defined as the amount of the enzyme that forms one μmole of glucose per minute under the above conditions.
A purified specimen of polypeptide having α-isomaltosyl-transferring activity, obtained by the method in Experiment 3-2, was acted on the substrate in 20 mM acetate buffer (pH6.0) at various temperatures for 30 min, according to the assay method of α-isomaltosyl-transferring enzyme disclosed in Experiment 1-1.

[2] = Optimum pH of the enzyme activity; assay type: biochemical; conditions: MacIlvaine buffer, 35° C., 30 min
Experimental: as §1
A purified specimen of polypeptide having α-isomaltosyl-transferring activity, obtained by the method in Experiment 3-2, was acted on the substrate in MacIlvaine buffer of various pHs at 35° C. for 30 min according to the assay method of α-isomaltosyl-transferring enzyme disclosed in Experiment 1-1.

[3] = Thermal stability of the polypeptide; assay type: physicochemical; conditions: 20 mM acetate buffer (pH 6.0), 60 min
Experimental: A purified specimen of polypeptide having α-isomaltosyl-transferring activity, obtained by the method in Experiment 3-2, was incubated in 20 mM acetate buffer (pH6.0) at various temperatures for 60 min according to the assay method of α-isomaltosyl-transferring enzyme disclosed in Experiment 1-1.

B1: polypeptide having α-isomaltosyl-transferring enzyme activity from Bacillus globisporus N75: purified α-isomaltosyl-transferring enzyme from Bacillus globisporus N75 (FERM BP-7591), contains the … (protein, listed as Bacillus globisporus)
chain: IDGVYHAPYGIDDLYEIQATERSPRDPVAGETVYIKITTWPIEPGQTAWVTWTKNGVAQPAVGAAYKYNSGNNTYWEANLGSFAKGDVISYTVRGNKDGANEKTAGPFTFTVTDWEYVSSIGSVTNNTNRVLLNAVPNTGTLSPKINISFTADDVFRVQLSPTGSGTLSTGLSNFTVTDSASTAWISTSKLKLKVDKNPFKLSVYKPDGTTLIARQYDSTANRNLAWLTNGSTVINKIEDHFYSPASEEFFGFGERYNNFRKRGTDVDTYVYNQYKNQNDRTYMAIPFMLNSSGYGIFVNSTYYSKFRLATERSDMYSFTADTGGSANSTLDYYFIYGNDLKGVVSNYANITGKPAALPKWAFGLWMSANEWDRQSKVATAINNANTNNIPATAVVLEQWSDENTFYMFNDAQYTAKPGGSTHSYTDYIFPAAGRWPNPKQMADNVHSNGMKLVLWQVPIQKWTAAPHLQKDNDESYMIAQNYAVGNGSGGQYRIPSGQWFENSLLLDFTNPSAKNWWMSKRAYLFDGVGIDGFKTDGGEMVWGRWNTFANGKKGDEMRNQYPNDYVKAYNEYARSKKSDAVSFSRSGTQGAQANQIFWSGDQESTFGAFQQAVQAGLTAGLSGVPYWSWDLAGFTGAYPSAELYKRATAMSAFAPIMQFHSEANGSSGINEERSPWNAQARTGDNTIISHFAKYTNTRMNLLPYIYSEAKAASDTGVPMMRAMALEYPSDTQTYGLTQQYMFGGSLLVAPVLNQGETNKNIYLPQGDWIDFWFGAQRPGGRTISYYAGVDDLPVFVKSGSILPMNLNGQYQVGGTIGNSLTAYNNLTFRIYPLGTTTYSWNDDIGGSVKTITSTEQYGLNKETVTLPAINSAKTLQVFTTKPSSVTLGGTALTAHSTLSALIGASSGWYYDTVQKLAYVKLGASSSAQTVVLDGVNKVEYEAEFGTLTGVTTNTNHAGYMGTGFVDGFDAAGDAVTFDVSVKAAGTYALKVRYASAGGNASRAIYVNNAKVTDLALPATANWDTWGTATVNVALNAGYNSIKVSYDNTNTLGINLDNIAIVEH
[1]
  optimum temperature: about 50 °C
[2]
  optimum pH: about 6.0
[3]
  thermal stability: up to 45 °C
